Measured values published in patent publication US20060142201A1.

What was measured:
[1] = target: human noradrenaline transporter (hNET) (human) (UniProt P23975); experiment: cell-based or functional assay
[2] = target: human noradrenaline transporter (hNET) (human) (UniProt P23975)

Chain of human noradrenaline transporter (hNET) (human) (P23975 whole entry): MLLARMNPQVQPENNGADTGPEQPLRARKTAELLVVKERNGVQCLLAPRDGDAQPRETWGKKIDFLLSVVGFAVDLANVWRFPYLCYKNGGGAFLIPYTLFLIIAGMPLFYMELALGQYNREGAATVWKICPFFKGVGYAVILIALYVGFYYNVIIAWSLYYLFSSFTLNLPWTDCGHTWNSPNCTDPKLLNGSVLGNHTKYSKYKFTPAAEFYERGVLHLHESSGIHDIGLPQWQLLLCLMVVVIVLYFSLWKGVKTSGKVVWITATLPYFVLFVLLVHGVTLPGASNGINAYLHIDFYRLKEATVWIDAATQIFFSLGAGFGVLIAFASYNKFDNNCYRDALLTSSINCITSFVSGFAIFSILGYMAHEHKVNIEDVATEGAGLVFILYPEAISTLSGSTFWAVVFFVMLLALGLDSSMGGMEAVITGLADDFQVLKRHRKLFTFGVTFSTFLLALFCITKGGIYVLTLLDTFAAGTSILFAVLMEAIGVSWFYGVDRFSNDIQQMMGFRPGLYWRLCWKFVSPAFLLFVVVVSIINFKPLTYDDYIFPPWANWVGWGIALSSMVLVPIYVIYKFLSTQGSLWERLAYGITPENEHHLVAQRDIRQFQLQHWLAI

Substance | Ay log IC50 for inhibition of 3H-NA through hNET [1] [log M] | Ay log IC50 for displacement of 3H-nisoxetine from hNET [2] [log M]
χ-MrIA (SEQ ID NO. 1) (peptide) | -6.3 | –
χ-MrIA (SEQ ID NO. 1) (peptide; other documents disagree on this pair) | – | -5.14
